Source: paper PMC3796546

Experiments:
Assay in all cases: co-IP with mass spectrometry
ARF2 = conditions: cross-linked in vivo with formaldehyde, p value 0.05060
PFK2 = conditions: cross-linked in vivo with formaldehyde, p value 0.14162
REP1 = conditions: cross-linked in vivo with formaldehyde, p value 0.25926
HOM2 = conditions: cross-linked in vivo with formaldehyde, p value 0.02371
TY1B-BR = conditions: cross-linked in vivo with formaldehyde, p value 0.09425
ENO1 = conditions: cross-linked in vivo with formaldehyde, p value 0.14901
TY1B-ER1 = conditions: cross-linked in vivo with formaldehyde, p value 0.21132
ADO1 = conditions: cross-linked in vivo with formaldehyde, p value 0.02371
HHF1 = conditions: cross-linked in vivo with formaldehyde, p value 0.08671
RPL13A/B = conditions: cross-linked in vivo with formaldehyde, p value 0.05060
SUP35 = conditions: cross-linked in vivo with formaldehyde, p value 0.08282
RPL36A = conditions: cross-linked in vivo with formaldehyde, p value 0.13485

**Q.** For “N-terminal 3xHA-tagged wild-type Irc20 (from UniProt Q06554) C1239A”, which ratio to parent (ARF2) is on record?
**A.** Its ratio to parent is 2.5.

**Q.** And the other: sum (ARF2; parent: 2)?
**A.** The other: sum was 5.

**Q.** What about the ratio to parent (PFK2) of the same substance?
**A.** Its ratio to parent is 6.

**Q.** What about the other: sum (PFK2; parent: 1) of the same substance?
**A.** Its other: sum is 6.

**Q.** And the ratio to parent (REP1)?
**A.** Its ratio to parent is 2.

**Q.** And the other: sum (REP1; parent: 2)?
**A.** Its other: sum is 4.

**Q.** What about the ratio to parent (HOM2) of the same substance?
**A.** The ratio to parent was 2.

**Q.** What about the other: sum (HOM2; parent: 4) of the same substance?
**A.** Its other: sum is 8.

**Q.** And the ratio to parent (TY1B-BR)?
**A.** Its ratio to parent is > 9.

**Q.** What about the other: sum (TY1B-BR; parent: 0) of the same substance?
**A.** Its other: sum is 9.

**Q.** What about the ratio to parent (ENO1) of the same substance?
**A.** The ratio to parent was 3.5.

**Q.** What about the other: sum (ENO1; parent: 2) of the same substance?
**A.** The other: sum was 7.

**Q.** And the ratio to parent (TY1B-ER1)?
**A.** The ratio to parent was > 6.

**Q.** What about the other: sum (TY1B-ER1; parent: 0) of the same substance?
**A.** Its other: sum is 6.

**Q.** What about the ratio to parent (ADO1) of the same substance?
**A.** The ratio to parent was 5.

**Q.** What about the other: sum (ADO1; parent: 1) of the same substance?
**A.** The other: sum was 5.

**Q.** What about the ratio to parent (HHF1) of the same substance?
**A.** The ratio to parent was 2.

**Q.** What about the other: sum (HHF1; parent: 4) of the same substance?
**A.** The other: sum was 8.

**Q.** And the ratio to parent (RPL13A/B)?
**A.** Its ratio to parent is 2.2.

**Q.** What about the other: sum (RPL13A/B; parent: 5) of the same substance?
**A.** The other: sum was 11.

**Q.** And the ratio to parent (SUP35)?
**A.** The ratio to parent was 2.14.

**Q.** And the other: sum (SUP35; parent: 7)?
**A.** The other: sum was 15.

**Q.** And the ratio to parent (RPL36A)?
**A.** Its ratio to parent is > 4.

**Q.** What about the other: sum (RPL36A; parent: 0) of the same substance?
**A.** Its other: sum is 4.
